Data: paper PMC13544220, “Glycemic and bodyweight effects of GIPR coding variation reflect differences in surface expression and intrinsic functional impairment” (Science Advances, 2026)
Substitutions are numbered along the chain they refer to. Names and notes keep the numbering of the source.

How the values were obtained:
Type in all cases: cell-based, human
[1] = tested on: wild-type and variant SNAP-GIPR; assay: Surface SNAP-GIPR expression (SNAP-tag labelling) in AD293 cells; conditions: for AD293 Surface: Fig S3E, mean; for Surface SNAP-GIPR expression: sheet Fig 1C;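 on all read-outs here: scaled to the experimental average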
Procedure, shortened: (§1)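 Surface GIPR is quantified from wide-field images after labelling intact transfected cells with a membrane-impermeant SNAP probe at 500 nM for 10 min at room temperature. Specific signal, corrected for nontransfected cells, is normalized to the experiment-wide average or to wild-type.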

[2] = tested on: wild-type and variant SNAP-GIPR; assay: Single-concentration GIP cAMP response by HTRF in AD293 cells; conditions: Fig S3F, HTRF, mean;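 further: ratio to experiment-wide average response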
Experimental: (§2) All variants were tested in parallel on each occasion to control for transfection efficiency differences between experiments.

[3] = tested on: wild-type and variant SNAP-GIPR; assay: Constitutive and agonist-mediated internalization, reversible SNAP-tag labelling, AD293 cells; set-up: key to Internalisation, Vehicle / Internalisation, +GIP / Internalisation, GIP-only: % internalization: residual fluorescence after Mesna vs pre-Mesna; Surface expression: unit not given here; conditions: Mean; for +GIP internalisation (100 nM) / GIP-specific internalisation (100 nM) / Constitutive internalisation (100 nM) / Surface expression: Fig 4E; for +GIP internalisation (100 nM) / GIP-specific internalisation (100 nM): GIP 100 nM; for Internalisation, +GIP / Internalisation, GIP-only / Internalisation, Vehicle: Fig S4C, AD293
Procedure, shortened: (§3)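 % internalization = residual specific fluorescence after Mesna / pre-Mesna value. Imaging in TNE buffer pH 8.6; second image 10 min post-Mesna.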

[4] = tested on: wild-type and variant SNAP-GIPR; assay: Constitutive and agonist-mediated internalization, reversible SNAP-tag labelling, INS-1 cells; set-up: key to Internalisation, GIP-only / Internalisation, Vehicle / Internalisation, +GIP: % internalization: residual fluorescence after Mesna vs pre-Mesna; conditions: Mean; for +GIP internalisation (100 nM) / GIP-specific internalisation (100 nM) / Constitutive internalisation (100 nM): Fig 4G; for +GIP internalisation (100 nM) / GIP-specific internalisation (100 nM): GIP 100 nM; for Internalisation, +GIP / Internalisation, GIP-only / Internalisation, Vehicle: Fig S4C, INS-1
Procedure, shortened: as §3

[5] = tested on: wild-type and variant SNAP-GIPR; assay: Single-concentration GIP cAMP response by HTRF in INS-1 cells; conditions: Fig S3E, mean
Experimental: as §2

[6] = tested on: wild-type and variant SNAP-GIPR; assay: cADDis cAMP imaging in AD293 cells, ensemble, expression-matched and per decile; conditions: Fig S3F, cADDis, mean
Procedure, shortened: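 Per-cell cAMP from cADDis intensity over time, with cells excluded by IBMX/FSK response criteria. Expression matching used wild-type surface-SNAP deciles, top and bottom trimmed, mean of decile means. Ensemble values ignore deciles. Wide-field imaging at 37 °C in KRBH with 6 mM glucose, 0.1% BSA, 24 h post-transfection in AD293.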

[7] = tested on: wild-type and variant SNAP-GIPR; assay: Surface SNAP-GIPR expression (SNAP-tag labelling) in INS-1 cells; conditions: Fig 4G; Mean
Procedure, shortened: as §1

[8] = column repeated, paired with cAMP 100 nM

B1: S415I (protein, UniProt P48546 22-466, looked up, variant S415I)
Gastric inhibitory …: RAETGSKGQTAGELYQRWERYRRECQETLAAAEPPSGLACNGSFDMYVCWDYAAPNATARASCPWYLPWHHHVAAGFVLRQCGSDGQWGLWRDHTQCENPEKNEAFLDQRLILERLQVMYTVGYSLSLATLLLALLILSLFRRLHCTRNYIHINLFTSFMLRAAAILSRDRLLPRPGPYLGDQALALWNQALAACRTAQIVTQYCVGANYTWLLVEGVYLHSLLVLVGGSEEGHFRYYLLLGWGAPALFVIPWVIVRYLYENTQCWERNEVKAIWWIIRTPILMTILINFLIFIRILGILLSKLRTRQMRCRDYRLRLARSTLTLVPLLGVHEVVFAPVTEEQARGALRFAKLGFEIFLSSFQGFLVSVLYCFINKEVQSEIRRGWHHCRLRRILGEEQRQLPERAFRALPSGSGPGEVPTSRGLSSGTLPGPGNEASRELESYC
With B1 the “AD293 Surface” value [1, 8] was 1.415, the “AD293 Surface” value ([1]; paired with cAMP 100 pM) was 1.415 and the “Surface SNAP-GIPR expression” value ([1]; replicate 1) was 1.538. For the same molecule, the “Surface SNAP-GIPR expression” value ([1]; replicate 2) was 1.541, the “Surface SNAP-GIPR expression” value ([1]; replicate 3) was 0.8191 and the “Surface SNAP-GIPR expression” value ([1]; replicate 4) was 0.7376. For the same molecule, the “Surface SNAP-GIPR expression” value ([1]; replicate 5) was 1.239, the “Surface SNAP-GIPR expression” value ([1]; replicate 6) was 0.9541 and the “Surface SNAP-GIPR expression” value ([1]; replicate 7) was 1.285. The “Surface SNAP-GIPR expression” value ([1]; replicate 8) was 1.716, the “Surface SNAP-GIPR expression” value ([1]; replicate 9) was 1.542 and the “Surface SNAP-GIPR expression” value ([1]; replicate 10) was 1.528. For the same molecule, the “Surface SNAP-GIPR expression” value ([1]; replicate 11) was 1.71, the “Surface SNAP-GIPR expression” value ([1]; replicate 12) was 1.642 and the “Surface SNAP-GIPR expression” value ([1]; replicate 13) was 1.407. The “Surface SNAP-GIPR expression” value ([1]; replicate 14) was 1.415, the “Surface SNAP-GIPR expression” value ([1]; replicate 15) was 1.606 and the “Surface SNAP-GIPR expression” value ([1]; replicate 16) was 1.78. For the same molecule, the “Surface SNAP-GIPR expression” value ([1]; replicate 17) was 1.435, the “Surface SNAP-GIPR expression” value ([1]; replicate 18) was 1.518 and the “Surface SNAP-GIPR expression” value ([1]; replicate 19) was 1.637. The “Surface SNAP-GIPR expression” value ([1]; replicate 20) was 1.459, the “Surface SNAP-GIPR expression” value ([1]; replicate 21) was 1.421 and the “Surface SNAP-GIPR expression” value ([1]; replicate 22) was 1.515. The “Surface SNAP-GIPR expression” value ([1]; replicate 23) was 1.665, the “Surface SNAP-GIPR expression” value ([1]; replicate 24) was 1.354 and the “Surface SNAP-GIPR expression” value ([1]; replicate 25) was 1.699. For the same molecule, the “Surface SNAP-GIPR expression” value ([1]; replicate 26) was 1.338, the “Surface SNAP-GIPR expression” value ([1]; replicate 27) was 1.389 and the “Surface SNAP-GIPR expression” value ([1]; replicate 28) was 1.441. The “Surface SNAP-GIPR expression” value ([1]; replicate 29) was 1.484, the “Surface SNAP-GIPR expression” value ([1]; replicate 30) was 1.535 and the “Surface SNAP-GIPR expression” value ([1]; replicate 31) was 1.596. For the same molecule, the “Surface SNAP-GIPR expression” value ([1]; replicate 32) was 1.349, the “Surface SNAP-GIPR expression” value ([1]; replicate 33) was 1.554 and the “Surface SNAP-GIPR expression” value ([1]; replicate 34) was 1.711. For the same molecule, the “Surface SNAP-GIPR expression” value ([1]; replicate 35) was 1.113, the “Surface SNAP-GIPR expression” value ([1]; replicate 36) was 1.535 and the “Surface SNAP-GIPR expression” value ([1]; replicate 37) was 1.264. The “Surface SNAP-GIPR expression” value ([1]; replicate 38) was 1.181, the “Surface SNAP-GIPR expression” value ([1]; replicate 39) was 0.9176 and the “Surface SNAP-GIPR expression” value ([1]; replicate 40) was 1.301. For the same molecule, the “Surface SNAP-GIPR expression” value ([1]; replicate 41) was 1.157, the “AD293 100 pM HTRF” value [2] was 1.488 and the “AD293 100 nM HTRF” value [2] was 1.113. The “+GIP internalisation (100 nM)” value [3] was 0.7539, the “GIP-specific internalisation (100 nM)” value [3] was 0.1889 and the “Constitutive internalisation (100 nM)” value [3] was 0.565. For the same molecule, the Surface expression [3] was 1.257, the “Internalisation, +GIP” value [3] was 60.2605 and the “Internalisation, GIP-only” value [3] was 14.9072. For the same molecule, the “Internalisation, Vehicle” value [3] was 45.3533, the “+GIP internalisation (100 nM)” value [4] was 0.7564 and the “GIP-specific internalisation (100 nM)” value [4] was 0.2171. The “Constitutive internalisation (100 nM)” value [4] was 0.5393, the “Internalisation, +GIP” value [4] was 53.8917 and the “Internalisation, GIP-only” value [4] was 15.145. The “Internalisation, Vehicle” value [4] was 38.7467, the “INS-1 cAMP (100 nM)” value [5] was 1.251 and the “AD293 100 pM cADDis” value [6] was 31.0791. The “AD293 100 nM cADDis” value [6] was 35.96 and the Surface expression [7] was 1.368.

B2: S447T (protein, UniProt P48546 22-466, looked up, variant S447T)
Gastric inhibitory …: B1 Gastric inhibitory … with I394S, S426T
For B2, the “AD293 Surface” value [1, 8] was 1.404, the “AD293 Surface” value ([1]; paired with cAMP 100 pM) was 1.404 and the “Surface SNAP-GIPR expression” value ([1]; replicate 1) was 1.604. For the same molecule, the “Surface SNAP-GIPR expression” value ([1]; replicate 2) was 1.279, the “Surface SNAP-GIPR expression” value ([1]; replicate 3) was 1.391 and the “Surface SNAP-GIPR expression” value ([1]; replicate 4) was 2.61. The “Surface SNAP-GIPR expression” value ([1]; replicate 5) was 1.403, the “Surface SNAP-GIPR expression” value ([1]; replicate 6) was 1.423 and the “Surface SNAP-GIPR expression” value ([1]; replicate 7) was 1.077. For the same molecule, the “Surface SNAP-GIPR expression” value ([1]; replicate 8) was 1.469, the “Surface SNAP-GIPR expression” value ([1]; replicate 9) was 1.63 and the “Surface SNAP-GIPR expression” value ([1]; replicate 10) was 1.374. The “Surface SNAP-GIPR expression” value ([1]; replicate 11) was 1.745, the “Surface SNAP-GIPR expression” value ([1]; replicate 12) was 1.689 and the “Surface SNAP-GIPR expression” value ([1]; replicate 13) was 1.462. The “Surface SNAP-GIPR expression” value ([1]; replicate 14) was 1.46, the “Surface SNAP-GIPR expression” value ([1]; replicate 15) was 1.674 and the “Surface SNAP-GIPR expression” value ([1]; replicate 16) was 1.628. For the same molecule, the “Surface SNAP-GIPR expression” value ([1]; replicate 17) was 1.349, the “Surface SNAP-GIPR expression” value ([1]; replicate 18) was 1.205 and the “Surface SNAP-GIPR expression” value ([1]; replicate 19) was 1.299. The “Surface SNAP-GIPR expression” value ([1]; replicate 20) was 1.361, the “Surface SNAP-GIPR expression” value ([1]; replicate 21) was 1.342 and the “Surface SNAP-GIPR expression” value ([1]; replicate 22) was 1.393. For the same molecule, the “Surface SNAP-GIPR expression” value ([1]; replicate 23) was 1.314, the “Surface SNAP-GIPR expression” value ([1]; replicate 24) was 1.27 and the “Surface SNAP-GIPR expression” value ([1]; replicate 25) was 1.747. The “Surface SNAP-GIPR expression” value ([1]; replicate 26) was 1.476, the “Surface SNAP-GIPR expression” value ([1]; replicate 27) was 1.434 and the “Surface SNAP-GIPR expression” value ([1]; replicate 28) was 1.161. For the same molecule, the “Surface SNAP-GIPR expression” value ([1]; replicate 29) was 0.9451, the “Surface SNAP-GIPR expression” value ([1]; replicate 30) was 1.119 and the “Surface SNAP-GIPR expression” value ([1]; replicate 31) was 1.316. For the same molecule, the “Surface SNAP-GIPR expression” value ([1]; replicate 32) was 1.418, the “Surface SNAP-GIPR expression” value ([1]; replicate 33) was 1.322 and the “Surface SNAP-GIPR expression” value ([1]; replicate 34) was 1.362. For the same molecule, the “Surface SNAP-GIPR expression” value ([1]; replicate 35) was 1.415, the “Surface SNAP-GIPR expression” value ([1]; replicate 36) was 1.515 and the “Surface SNAP-GIPR expression” value ([1]; replicate 37) was 1.174. For the same molecule, the “Surface SNAP-GIPR expression” value ([1]; replicate 38) was 1.292, the “Surface SNAP-GIPR expression” value ([1]; replicate 39) was 1.035 and the “Surface SNAP-GIPR expression” value ([1]; replicate 40) was 1.181. For the same molecule, the “Surface SNAP-GIPR expression” value ([1]; replicate 41) was 1.207, the “AD293 100 pM HTRF” value [2] was 1.563 and the “AD293 100 nM HTRF” value [2] was 1.418. For the same molecule, the “+GIP internalisation (100 nM)” value [3] was 0.6943, the “GIP-specific internalisation (100 nM)” value [3] was 0.1731 and the “Constitutive internalisation (100 nM)” value [3] was 0.5211. For the same molecule, the Surface expression [3] was 1.271, the “Internalisation, +GIP” value [3] was 54.6308 and the “Internalisation, GIP-only” value [3] was 13.6704. The “Internalisation, Vehicle” value [3] was 40.9604, the “+GIP internalisation (100 nM)” value [4] was 0.5789 and the “GIP-specific internalisation (100 nM)” value [4] was 0.1373. For the same molecule, the “Constitutive internalisation (100 nM)” value [4] was 0.4416, the “Internalisation, +GIP” value [4] was 49.3117 and the “Internalisation, GIP-only” value [4] was 11.6867. The “Internalisation, Vehicle” value [4] was 37.625, the “INS-1 cAMP (100 nM)” value [5] was 1.225 and the “AD293 100 pM cADDis” value [6] was 33.2503. The “AD293 100 nM cADDis” value [6] was 38.05 and the Surface expression [7] was 1.143.
